Measured values: publication PMC8897273 (Journal of molecular biology, 2022)
Where two headings read alike, the source gives them in different places.

Columns and labels:
[1] = molecular target: human polyadenylate binding protein 1 (PABP1) (human, UniProt P11940 1-636); assay: native gel or EMSA
PABP1 [2] = molecular target: T1, PABP1 (Homo sapiens, UniProt P11940 1-636); assay: EMSA
PABP1 [3] = molecular target: T1, PABP1; assay: EMSA; remark: listed apart in the source

T1 sequence (P11940 whole entry): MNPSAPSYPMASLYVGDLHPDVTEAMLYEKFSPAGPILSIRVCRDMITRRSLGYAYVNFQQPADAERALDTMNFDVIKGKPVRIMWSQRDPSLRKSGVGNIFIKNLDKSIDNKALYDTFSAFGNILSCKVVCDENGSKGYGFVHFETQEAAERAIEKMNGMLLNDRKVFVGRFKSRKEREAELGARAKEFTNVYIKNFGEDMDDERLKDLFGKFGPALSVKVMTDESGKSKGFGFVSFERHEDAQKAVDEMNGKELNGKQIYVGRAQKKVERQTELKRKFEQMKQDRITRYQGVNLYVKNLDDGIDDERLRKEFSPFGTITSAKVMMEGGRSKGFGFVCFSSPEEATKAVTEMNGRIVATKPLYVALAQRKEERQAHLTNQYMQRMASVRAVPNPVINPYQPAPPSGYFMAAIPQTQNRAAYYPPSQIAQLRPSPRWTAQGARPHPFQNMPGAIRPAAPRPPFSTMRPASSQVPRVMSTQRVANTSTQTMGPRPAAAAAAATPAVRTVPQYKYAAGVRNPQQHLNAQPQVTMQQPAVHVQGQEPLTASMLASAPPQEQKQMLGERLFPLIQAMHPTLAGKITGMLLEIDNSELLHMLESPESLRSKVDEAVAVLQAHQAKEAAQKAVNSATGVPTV
Chain of human polyadenylate binding protein 1 (PABP1) (P11940 whole entry): as above

B1: human eIF4G1 fragment (88–653) (domain or fragment, UniProt Q04637-1 88-653, looked up)
chain: MMIPSQISYPASQGAYYIPGQGRSTYVVPTQQYPVQPGAPGFYPGASPTEFGTYAGAYYPAQGVQQFPTGVAPTPVLMNQPPQIAPKRERKTIRIRDPNQGGKDITEEIMSGARTASTPTPPQTGGGLEPQANGETPQVAVIVRPDDRSQGAIIADRPGLPGPEHSPSESQPSSPSPTPSPSPVLEPGSEPNLAVLSIPGDTMTTIQMSVEESTPISRETGEPYRLSPEPTPLAEPILEVEVTLSKPVPESEFSSSPLQAPTPLASHTVEIHEPNGMVPSEDLEPEVESSPELAPPPACPSESPVPIAPTAQPEELLNGAPSPPAVDLSPVSEPEEQAKEVTASMAPPTIPSATPATAPSATSPAQEEEMEEEEEEEEGEAGEAGEAESEKGGEELLPPESTPIPANLSQNLEAAAATQVAVSVPKRRRKIKELNKKEAVGDLLDAFKEANPAVPEVENQPPAGSNPGPESEGSGVPPRPEEADETWDSKEDKIHNAENIQPGEQKYEYKSDQWKPLNLEEKKRYDREFLLGFQFIFASMQKPEGLPHISDVVLDKANKTPLRPLDT
- binding result [1]: binds

Binder: AAAAAAAAAAAAAAAAAA (ssRNA) [Poly(A)18]
- binding result (PABP1 [2]): binds

Binder: GCUAUCCAGAUUCUGAUU (ssRNA) [ssCR1]
- binding result (PABP1 [3]): no binding
